According to patent CN113929774A (INST MICROBIOLOGY CAS, dated 2022):

Biological target: SARS-CoV-2南非株(B.1.351)活病毒的S蛋白 (SARS-CoV-2 B.1.351)
Assay: cell-based or functional assay

B1: 9K抗体 (antibody, V domains shown)
VH: EVQLVESGGGVVQPGRSLGLSCAVSGFTFSSYAMHWVRQAPGKGLEWVALISNDGTIDSYADSVKGRFTISRDNSKNTLYLRMSSLRAEDTAVYYCARDKEQLVPTFDYWGQGTLVTVSS
VL: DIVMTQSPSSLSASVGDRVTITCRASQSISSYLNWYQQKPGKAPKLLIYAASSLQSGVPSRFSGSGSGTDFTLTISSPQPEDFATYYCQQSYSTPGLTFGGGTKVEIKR
中和滴度(半抑制浓度，IC50), live virus CPE assay on Vero E6 cells: 11.5 µg/mL
